2 molecules from publication PMC3864901, “A Conserved Sequence Extending Motif III of the Motor Domain in the Snf2-Family DNA Translocase Rad54 Is Critical for ATPase Activity” (PLoS ONE, 2013) can be followed below.

Series [1] deals with Rad54 (Saccharomyces cerevisiae). Description: EMSA (glutaraldehyde-fixed, agarose). The following applies: 13 mM Mg acetate, 25 mM TEA-Ac pH 7.5, 13 mM Mg acetate, 1.8 mM DTT, 100 ug/ml BSA, 11.25% glycerol, 113 mM NaCl, 30 uM bp pUC19, 30 C 15 min, then 0.25% glutaraldehyde 15 min ….
Substrate in series [2]: Nc1ncnc2c1ncn2[C@@H]1O[C@H](COP(=O)(O)OP(=O)(O)OP(=O)(O)O)[C@@H](O)[C@H]1O
Description: NADH-coupled ATPase assay, Michaelis-Menten fit. Particulars: 1.5 uM pUC19 dsDNA, 2.5 mM free Mg(OAc)2, 25 mM HEPES pH 7.5, 30 C, 5 nM Rad54. It is filed as biochemical, Saccharomyces cerevisiae. From the text: NADH-coupled ATPase assay, Michaelis-Menten fit on Rad54 | Michaelis-Menten parameters of Rad54 and Rad54-2A as determined from the ATP titrations in B

Regarding pUC19 supercoiled dsDNA, the binding (bp per Rad54 monomer (all DNA bound)) in series [1] (5 mM ATP + regeneration system) and in series [1] (no nucleotide) was 36 in each case.

B1: Rad54 (Saccharomyces cerevisiae S288C) (protein)
chain: MARRRLPDRPPNGIGAGERPRLVPRPINVQDSVNRLTKPFRVPYKNTHIPPAAGRIATGSDNIVGGRSLRKRSATVCYSGLDINADEAEYNSQDISFSQLTKRRKDALSAQRLAKDPTRLSHIQYTLRRSFTVPIKGYVQRHSLPLTLGMKKKITPEPRPLHDPTDEFAIVLYDPSVDGEMIVHDTSMDNKEEESKKMIKSTQEKDNINKEKNSQEERPTQRIGRHPALMTNGVRNKPLRELLGDSENSAENKKKFASVPVVIDPKLAKILRPHQVEGVRFLYRCVTGLVMKDYLEAEAFNTSSEDPLKSDEKALTESQKTEQNNRGAYGCIMADEMGLGKTLQCIALMWTLLRQGPQGKRLIDKCIIVCPSSLVNNWANELIKWLGPNTLTPLAVDGKKSSMGGGNTTVSQAIHAWAQAQGRNIVKPVLIISYETLRRNVDQLKNCNVGLMLADEGHRLKNGDSLTFTALDSISCPRRVILSGTPIQNDLSEYFALLSFSNPGLLGSRAEFRKNFENPILRGRDADATDKEITKGEAQLQKLSTIVSKFIIRRTNDILAKYLPCKYEHVIFVNLKPLQNELYNKLIKSREVKKVVKGVGGSQPLRAIGILKKLCNHPNLLNFEDEFDDEDDLELPDDYNMPGSKARDVQTKYSAKFSILERFLHKIKTESDDKIVLISNYTQTLDLIEKMCRYKHYSAVRLDGTMSINKRQKLVDRFNDPEGQEFIFLLSSKAGGCGINLIGANRLILMDPDWNPAADQQALARVWRDGQKKDCFIYRFISTGTIEEKIFQRQSMKMSLSSCVVDAKEDVERLFSSDNLRQLFQKNENTICETHETYHCKRCNAQGKQLKRAPAMLYGDATTWNHLNHDALEKTNDHLLKNEHHYNDISFAFQYISH
notes: wild-type yeast Rad54, overexpressed in S. cerevisiae and purified as in earlier work
Take B1: in series [2], the Km came out at 170 ± 40 µM and the kcat is on record as 1,219 ± 45 min-1.

As usually defined, the Km is the concentration of substrate that gives half-maximal velocity.
